Our source for the median relative relaxation values is patent US20250304655A1.

In the test the target is human hemoglobin (HbA) (human) (UniProt P69905). The test can be described thus: cell-based or functional assay.
Chain of human hemoglobin (HbA) (human) (P69905 2-142 limits assumed, chain 1 of 2): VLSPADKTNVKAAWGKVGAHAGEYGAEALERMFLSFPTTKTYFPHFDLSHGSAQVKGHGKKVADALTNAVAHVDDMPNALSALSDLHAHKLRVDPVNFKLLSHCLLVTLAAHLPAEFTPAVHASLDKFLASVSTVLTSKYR
Chain of human hemoglobin (HbA) (human) (P68871 2-147 limits assumed, chain 2 of 2, further chain): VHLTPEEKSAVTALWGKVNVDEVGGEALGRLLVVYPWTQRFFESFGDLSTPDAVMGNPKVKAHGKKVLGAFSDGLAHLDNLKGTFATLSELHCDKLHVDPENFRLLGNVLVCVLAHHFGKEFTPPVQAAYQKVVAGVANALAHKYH

As to recHp1-1, the median relative relaxation was 83%.
